Measurements as given in US20210363269A1 (ALX ONCOLOGY, published 2021).

Tests used:
human SIRP-α v2 [1] = molecular target: T1, human SIRP-α v2 (human); assay: SPR
T1 construct: also called Human v2; Human V2
Method in brief: (§1)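 Antibodies were amine-coupled (GLC chip) or captured via biotinylated Protein A (NLC chip) on a ProteOn XPR36, and SIRP analytes were injected in one-shot kinetic mode at 25° C in PBS pH 7.4 with 0.01% Tween-20. KD is kd/ka from apparent rate constants given by a global simple Langmuir fit of double-referenced data, with analyte concentrations nominal.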

human SIRPβ isoform 1 [2] = molecular target: T2, human SIRPβ isoform 1 (human, UniProt O00241 30-148); assay: SPR Koff +/-
T2 construct: also called Beta; Human SIRPb
T2 sequence (O00241 30-148 limits assumed): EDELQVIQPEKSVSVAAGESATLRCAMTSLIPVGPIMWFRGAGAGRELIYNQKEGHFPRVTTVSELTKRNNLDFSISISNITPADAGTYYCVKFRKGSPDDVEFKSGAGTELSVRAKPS
Method in brief: as §1

human SIRP-α v1 [3] = molecular target: T3, human SIRP-α v1 (human, UniProt P78324 31-149); assay: SPR; fitted KD column of Table P
T3 construct: also called Human v1; Human V1
T3 sequence (P78324 31-149 limits assumed): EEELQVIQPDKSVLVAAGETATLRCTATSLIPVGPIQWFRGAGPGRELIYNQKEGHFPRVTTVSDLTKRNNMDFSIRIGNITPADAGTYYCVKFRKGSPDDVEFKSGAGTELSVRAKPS
Method in brief: as §1

[4] = molecular target: T4, BALB/c mouse SIRP-α D1 domain (mouse (BALB/c strain)); assay: SPR, antibody immobilised on GLC chip
T4 chain: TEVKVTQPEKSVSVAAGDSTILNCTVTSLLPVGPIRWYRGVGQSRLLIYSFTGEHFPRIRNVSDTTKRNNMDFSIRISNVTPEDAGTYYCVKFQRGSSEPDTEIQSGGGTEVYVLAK
Protocol: (§2) All experiments were performed at 25° C. using a SPR-based ProteOn XPR36 biosensor (BioRad, Inc, Hercules, Calif.) equipped with GLC or NLC sensor chips. […] Purification was carried out by standard Protein A affinity column chromatography and eluted antibodies were stored in PBS buffer.
(§3) For the method using GLC chip, the analytes were injected and flowed over anti-SIRPα antibodies immobilized (˜1000 RUs) on GLC chips using Proteon™ Amine Coupling Kit. For the immobilization step, GLC chip was activated with EDAC/Sulpho-NHS 1:1 (Biorad) diluted 1/100 for 300 s at 25 μL/min. Anti-SIRPα antibodies were diluted to 80 nM concentration in 10 mM sodium acetate buffer pH 4.5 and immobilized to the chip at 30 μL/min for 50 s. Chip was inactivated with ethanolamine for 300 s at 25 μL/min. The analytes (e.g., SIRP-α from different species, SIRP-β, SIRP-γ) were injected in a “one-shot” kinetic mode at nominal concentrations of 100, 33, 11, 3.7, 1.2 and 0 nM. Association times were monitored for 90 s at 100 μL/min, and dissociation times were monitored for 1200 s. The surfaces were regenerated with a 2:1 v/v blend of Pierce IgG elution buffer/4M NaCl. […]

[5] = molecular target: T5, cynomolgus SIRP-α D1 domain (SEQ ID NO:11) (cynomolgus, UniProt Q5TFQ8 30-148 (human entry), limits assumed); assay: SPR, antibody immobilised on GLC chip
T5 construct: also called cyno1
T5 chain: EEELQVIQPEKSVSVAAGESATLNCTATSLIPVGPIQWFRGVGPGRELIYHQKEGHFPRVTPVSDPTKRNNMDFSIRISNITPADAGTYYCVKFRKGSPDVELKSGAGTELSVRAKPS
Protocol: as §2, §3

[6] = molecular target: T6, human SIRP-α v1 D1 domain (human, UniProt P78324 31-149); assay: SPR, antibody immobilised on GLC chip
T6 construct: also called human v1; human α v1
T6 sequence (P78324 31-149 limits assumed): as the sequence (P78324 31-149 limits assumed) above
Protocol: as §2, §3

[7] = molecular target: T7, human SIRP-α v2 D1 domain (human); assay: SPR, antibody immobilised on GLC chip
T7 construct: also called human v2; human α v2
T7 sequence (chain, as listed by the source limits assumed): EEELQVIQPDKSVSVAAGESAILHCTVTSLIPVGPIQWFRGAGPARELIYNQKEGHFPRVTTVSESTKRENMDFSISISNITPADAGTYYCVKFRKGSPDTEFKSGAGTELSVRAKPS
Protocol: as §2, §3

human SIRPγ isoform 1 [8] = molecular target: T8, human SIRPγ isoform 1 (human, UniProt Q9P1W8 29-147); assay: SPR, antibody immobilised on GLC chip
T8 construct: also called sirpg; sirp-g
Protocol: as §2, §3

[9] = molecular target: T9, C57BL/6 mouse SIRP-α D1 domain (mouse (C57BL/6 strain), UniProt P97797 32-148); assay: SPR, antibody immobilised on GLC chip
T9 sequence: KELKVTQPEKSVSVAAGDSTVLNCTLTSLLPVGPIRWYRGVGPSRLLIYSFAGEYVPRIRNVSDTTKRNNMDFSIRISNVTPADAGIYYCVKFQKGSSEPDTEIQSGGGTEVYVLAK
Protocol: as §2, §3

[10] = molecular target: T10, NOD mouse SIRP-α D1 domain (mouse (NOD strain)); assay: SPR, antibody immobilised on GLC chip
T10 chain: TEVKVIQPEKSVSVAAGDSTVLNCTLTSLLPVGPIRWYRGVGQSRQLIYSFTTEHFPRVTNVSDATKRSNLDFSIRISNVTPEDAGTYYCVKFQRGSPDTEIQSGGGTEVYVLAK
Protocol: as §2, §3

human SIRP-α v2 [11] = molecular target: T1, human SIRP-α v2; assay: SPR, antibody on GLC chip
Method in brief: (§4)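 Antibodies purified with Protein A were amine-coupled (~1000 RU) to a ProteOn XPR36 GLC chip, and SIRP analytes were injected one-shot at 100, 33, 11, 3.7, 1.2 and 0 nM in PBS pH 7.4 with 0.01% Tween-20 at 25° C. Each run used 90 s association at 100 μL/min followed by 1200 s dissociation. KD was derived as kd/ka from a global Langmuir fit to double-referenced sensorgrams.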

BL6 mouse SIRP-α = molecular target: T11, BL6 mouse SIRP-α (mouse (C57BL/6 strain), UniProt P97797 32-148); assay: SPR, antibody on GLC chip
T11 construct: also called C57BL/6
T11 sequence: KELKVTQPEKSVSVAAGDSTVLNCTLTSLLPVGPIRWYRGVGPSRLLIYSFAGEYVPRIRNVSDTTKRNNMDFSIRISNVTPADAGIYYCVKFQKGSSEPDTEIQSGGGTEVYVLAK
Method in brief: as §4

human SIRPβ isoform 1 [12] = molecular target: T2, human SIRPβ isoform 1; assay: SPR, antibody on GLC chip
Method in brief: as §4

human SIRP-α v1 [13] = molecular target: T3, human SIRP-α v1; assay: SPR, antibody on GLC chip
Method in brief: as §4

BALBc mouse SIRP-α = molecular target: T12, BALBc mouse SIRP-α (mouse (BALB/c strain)); assay: SPR, antibody on GLC chip
T12 chain: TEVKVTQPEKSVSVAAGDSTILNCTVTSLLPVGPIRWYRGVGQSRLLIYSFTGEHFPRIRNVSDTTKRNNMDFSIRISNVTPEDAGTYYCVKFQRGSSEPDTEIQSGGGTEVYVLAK
Method in brief: as §4

NOD mouse SIRP-α = molecular target: T13, NOD mouse SIRP-α (mouse (NOD strain)); assay: SPR, antibody on GLC chip
T13 chain: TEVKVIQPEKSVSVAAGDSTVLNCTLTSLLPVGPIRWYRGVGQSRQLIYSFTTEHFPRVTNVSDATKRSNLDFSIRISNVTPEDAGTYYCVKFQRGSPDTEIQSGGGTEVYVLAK
Method in brief: as §4

human SIRP-α v1 [14] = molecular target: T3, human SIRP-α v1; assay: SPR
Method in brief: as §1

human SIRPγ isoform 1 [15] = molecular target: T14, human SIRPγ isoform 1 (human, UniProt Q9P1W8 29-147); assay: SPR, antibody on GLC chip; fitted KD (M) in Table Q; weak binding, 23.9 nM
T14 construct: also called Gamma; Human SIRPg
Protocol: as §2
For the method using GLC chip, the analytes were injected and flowed over anti-SIRPα antibodies immobilized (˜1000 RUs) on GLC chips using Proteon™ Amine Coupling Kit. For the immobilization step, GLC chip was activated with EDAC/Sulpho-NHS 1:1 (Biorad) diluted 1/100 for 300 s at 25 μL/min. Anti-SIRPα antibodies were diluted to 80 nM concentration in 10 mM sodium acetate buffer pH 4.5 and immobilized to the chip at 30 μL/min for 50 s. Chip was inactivated with ethanolamine for 300 s at 25 μL/min. The analytes (e.g., SIRP-α from different species, SIRP-β, SIRP-γ) were injected in a “one-shot” kinetic mode at nominal concentrations of 100, 33, 11, 3.7, 1.2 and 0 nM. Association times were monitored for 90 s at 100 μL/min, and dissociation times were monitored for 1200 s. The surfaces were regenerated with a 2:1 v/v blend of Pierce IgG elution buffer/4M NaCl.

T1 sequence (chain, as listed by the source limits assumed): as the sequence (chain, as listed by the source limits assumed) above

B1: antibody 213 (antibody, V domains shown)
VH: DVQLVESGGGVVRPGESLRLSCEASGFTFRNYYMTWVRQAPGEGLEWVSTISDTGDTAYYADSVKGRFTISRDNSKNSLYLQMNSLRADDTAIYYCAKSWIWWTFFDYWGLGTLVTVSS
VL: ALTQPASVSANLGGTVEITCSGGNSNHYGWYQQKSPGSAPVTLIYADTNRPSNIPSRFSGSTSGSTTTLTITGVQAEDEAVYYCGGSSTGDGIFGAGTTLTVL
notes: also called S213
**Q.** With B1 as the binder, how does the Kd (human SIRP-α v2 [1]) read?
**A.** 1.69 nM

**Q.** Does B1 bind (human SIRPβ isoform 1 [2])?
**A.** no binding

**Q.** And the Kd (human SIRP-α v1 [3])?
**A.** 6.05 nM

B2: antibody 136 variant MutRv_I2T/mut_V34M (antibody, human IgG1, V domains shown)
VH: EVQLVESGGGVVQPGRSLRLSCAASGFTFSSYDMNWVRQAPGKGLEWVSLISGSGEIIYYADSVKGRFTISRDNSKNTLYLQMNSLRAEDTAVYYCAKENNRYRFFDDWGQGTLVTVSS
VL: ETVLTQSPGTLSLSPGERATLSCRASQSVYTYLAWYQQKPGQAPRLLIYGASSRATGIPDRFSGSGSGTEFTLTISSLQSEDFAVYYCQQYYDRPPLTFGGGTKVEIK
notes: Human IgG1 with L234A/L235A/G237A/N297A; Labels are light chain/heavy chain
**Q.** B2 was tested. Which Kd [4] did it give?
**A.** 0.361 nM

**Q.** What about the Kd [5] of the same binder?
**A.** 2.11 nM

**Q.** And the Kd [6]?
**A.** 0.551 nM

**Q.** What about the Kd [7] of the same binder?
**A.** 1.74 nM

**Q.** What about the Kd (human SIRPγ isoform 1 [8]) of the same binder?
**A.** 33.5 nM

**Q.** What about the Kd [9] of the same binder?
**A.** 13.8 nM

**Q.** And the Kd [10]?
**A.** 0.596 nM

B3: antibody 136 (antibody, V domains shown)
VH: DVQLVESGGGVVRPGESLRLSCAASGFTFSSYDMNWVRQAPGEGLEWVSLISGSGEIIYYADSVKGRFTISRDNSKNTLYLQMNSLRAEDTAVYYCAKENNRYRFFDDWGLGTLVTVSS
VL: ETVLTQSPGTLTLSPGERATLTCRASQSVYTYLAWYQEKPGQAPRLLIYGASSRATGIPDRFSGSGSGTEFTLTISSLQSEDFAVYYCQQYYDRPPLTFGGGTKVEIK
notes: also called AB136; S136
**Q.** Which Kd (human SIRP-α v2 [11]) does the source give for B3 here?
**A.** 1.63 nM

**Q.** And the Kd (BL6 mouse SIRP-α)?
**A.** 12.7 nM

**Q.** What about the Kd (human SIRPβ isoform 1 [12]) of the same binder?
**A.** 4.35 nM

**Q.** And the Kd (human SIRP-α v1 [13])?
**A.** 0.458 nM

**Q.** What about the Kd (BALBc mouse SIRP-α) of the same binder?
**A.** 0.35 nM

**Q.** And the Kd (NOD mouse SIRP-α)?
**A.** 0.554 nM

**Q.** And the Kd (human SIRP-α v2 [1])?
**A.** 3.22 nM

**Q.** And the Kd (human SIRP-α v1 [14])?
**A.** 0.458 nM

**Q.** And the Kd (human SIRPγ isoform 1 [15])?
**A.** 23.9 nM
